Numbered stars: 1 amine (or outer) side, 2 acyl side, 3 side chain; on linkers, the order of the positions; unused ones are H or OH. Side chains are listed from the residue outwards. Ends that are not written are not given here. * marks the point of attachment. C20 diacid = O=C(O)CCCCCCCCCCCCCCCCCCC(=O)*; C18 diacid = O=C(O)CCCCCCCCCCCCCCCCC(=O)*; γGlu = O=C(O)[C@H](CCC(=O)[*:2])N[*:1]
T1: human amylin 3(a) receptor (human calcitonin receptor co-expressed with RAMP-3) on BHK570/CRE-luc cells (human, UniProt P30988 25-474; O60896 24-148)
T1 sequence (looked up) 1: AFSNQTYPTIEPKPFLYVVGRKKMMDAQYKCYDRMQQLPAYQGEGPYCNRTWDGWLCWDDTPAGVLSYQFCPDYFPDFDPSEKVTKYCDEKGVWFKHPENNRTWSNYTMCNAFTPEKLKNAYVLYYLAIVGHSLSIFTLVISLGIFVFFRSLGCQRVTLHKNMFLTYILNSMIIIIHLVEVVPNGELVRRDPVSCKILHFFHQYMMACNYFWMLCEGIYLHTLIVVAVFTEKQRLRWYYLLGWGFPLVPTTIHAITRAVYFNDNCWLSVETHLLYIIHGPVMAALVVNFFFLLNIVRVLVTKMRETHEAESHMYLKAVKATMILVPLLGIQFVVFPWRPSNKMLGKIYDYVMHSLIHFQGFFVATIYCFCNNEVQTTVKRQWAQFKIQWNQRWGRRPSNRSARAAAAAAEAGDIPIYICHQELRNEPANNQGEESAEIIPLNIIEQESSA
T1 sequence (looked up) 2: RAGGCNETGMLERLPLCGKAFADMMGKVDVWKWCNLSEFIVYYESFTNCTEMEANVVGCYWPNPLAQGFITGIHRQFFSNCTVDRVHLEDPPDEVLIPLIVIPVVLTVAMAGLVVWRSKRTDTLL

T2: human calcitonin receptor on BHK570/CRE-luc cells (human, UniProt P30988 25-474)
T2 sequence (looked up): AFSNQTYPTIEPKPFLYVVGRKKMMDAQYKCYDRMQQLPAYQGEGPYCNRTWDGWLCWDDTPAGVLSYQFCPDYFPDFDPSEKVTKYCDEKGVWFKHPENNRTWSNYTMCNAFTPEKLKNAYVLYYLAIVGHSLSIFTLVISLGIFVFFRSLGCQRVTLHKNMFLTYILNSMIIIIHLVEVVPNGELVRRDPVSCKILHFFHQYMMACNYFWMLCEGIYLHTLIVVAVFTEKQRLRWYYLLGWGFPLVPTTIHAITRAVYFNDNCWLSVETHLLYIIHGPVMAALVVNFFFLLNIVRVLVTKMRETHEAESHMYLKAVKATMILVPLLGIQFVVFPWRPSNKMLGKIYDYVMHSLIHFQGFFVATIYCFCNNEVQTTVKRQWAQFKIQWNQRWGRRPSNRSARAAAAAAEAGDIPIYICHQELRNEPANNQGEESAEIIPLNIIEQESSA


Columns and labels:
[1] = target: T1, human amylin 3(a) receptor (human …); assay: cell-based or functional assay
[2] = target: T2, human calcitonin receptor on …; assay: cell-based or functional assay

Row | Binder | hAmylin-R funct. EC50 (pM), tested with HSA [1] [pM] | hCTR funct. EC50 (pM), tested with HSA [2] [pM]
1 | {C18 diacid-γGlu}-ASELTTAVLGRLTAELHELETLPRTETGTGTP-NH2 (SMILES CC(C)C[C@H](NC(=O)[C@H](CCC(=O)O)NC(=O)[C@H](C)NC(=O)[C@@H](NC(=O)[C@H](CC(C)C)NC(=O)[C@H](CCCNC(=N)N)NC(=O)CNC(=O)[C@H](CC(C)C)NC(=O)[C@@H](NC(=O)[C@H](C)NC(=O)[C@@H](NC(=O)[C@@H](NC(=O)[C@H](CC(C)C)NC(=O)[C@H](CCC(=O)O)NC(=O)[C@H](CO)NC(=O)[C@H](C)NC(=O)CC[C@H](NC(=O)CCCCCCCCCCCCCCCCC(=O)O)C(=O)O)[C@@H](C)O)[C@@H](C)O)C(C)C)[C@@H](C)O)C(=O)N[C@@H](Cc1c[nH]cn1)C(=O)N[C@@H](CCC(=O)O)C(=O)N[C@@H](CC(C)C)C(=O)N[C@@H](CCC(=O)O)C(=O)N[C@H](C(=O)N[C@@H](CC(C)C)C(=O)N1CCC[C@H]1C(=O)N[C@@H](CCCNC(=N)N)C(=O)N[C@H](C(=O)N[C@@H](CCC(=O)O)C(=O)N[C@H](C(=O)NCC(=O)N[C@H](C(=O)NCC(=O)N[C@H](C(=O)N1CCC[C@H]1C(N)=O)[C@@H](C)O)[C@@H](C)O)[C@@H](C)O)[C@@H](C)O)[C@@H](C)O) [[N-terminal(C18 diacid-gGlu), des1, 6T, 9V, 14T, 21E, 30T, 31G, 32T]mimylin] | 179 | 22
2 | {C18 diacid-γGlu}-ASELTTAVLGRLEAELHELTTLPRTETGTGTP-NH2 [[N-terminal(C18 diacid-gGlu), des1, 6T, 9V, 14E, 21T, 30T, 31G, 32T]mimylin] | 157 | 31
3 | ASGLSTAALGRLSQELHELQTYPRTETGSK([γGlu-C20 diacid])TY-NH2 (N-terminus assumed; SMILES CC(C)C[C@H](NC(=O)CNC(=O)[C@H](CO)NC(=O)[C@H](C)N)C(=O)N[C@@H](CO)C(=O)N[C@H](C(=O)N[C@@H](C)C(=O)N[C@@H](C)C(=O)N[C@@H](CC(C)C)C(=O)NCC(=O)N[C@@H](CCCNC(=N)N)C(=O)N[C@@H](CC(C)C)C(=O)N[C@@H](CO)C(=O)N[C@@H](CCC(N)=O)C(=O)N[C@@H](CCC(=O)O)C(=O)N[C@@H](CC(C)C)C(=O)N[C@@H](Cc1c[nH]cn1)C(=O)N[C@@H](CCC(=O)O)C(=O)N[C@@H](CC(C)C)C(=O)N[C@@H](CCC(N)=O)C(=O)N[C@H](C(=O)N[C@@H](Cc1ccc(O)cc1)C(=O)N1CCC[C@H]1C(=O)N[C@@H](CCCNC(=N)N)C(=O)N[C@H](C(=O)N[C@@H](CCC(=O)O)C(=O)N[C@H](C(=O)NCC(=O)N[C@@H](CO)C(=O)N[C@@H](CCCCNC(=O)CC[C@H](NC(=O)CCCCCCCCCCCCCCCCCCC(=O)O)C(=O)O)C(=O)N[C@H](C(=O)N[C@@H](Cc1ccc(O)cc1)C(N)=O)[C@@H](C)O)[C@@H](C)O)[C@@H](C)O)[C@@H](C)O)[C@@H](C)O) [[des1, 4G, 15Q, 21Q, 23Y, 30S, 31K(C20 diacid-gGlu), 32T, 33Y]mimylin] | 335 | 113
4 | {C20 diacid-γGlu}-ASGLSTAALGRLSQELHELETYPRTETGSGTY-NH2 (SMILES CC(C)C[C@H](NC(=O)CNC(=O)[C@H](CO)NC(=O)[C@H](C)NC(=O)CC[C@H](NC(=O)CCCCCCCCCCCCCCCCCCC(=O)O)C(=O)O)C(=O)N[C@@H](CO)C(=O)N[C@H](C(=O)N[C@@H](C)C(=O)N[C@@H](C)C(=O)N[C@@H](CC(C)C)C(=O)NCC(=O)N[C@@H](CCCNC(=N)N)C(=O)N[C@@H](CC(C)C)C(=O)N[C@@H](CO)C(=O)N[C@@H](CCC(N)=O)C(=O)N[C@@H](CCC(=O)O)C(=O)N[C@@H](CC(C)C)C(=O)N[C@@H](Cc1c[nH]cn1)C(=O)N[C@@H](CCC(=O)O)C(=O)N[C@@H](CC(C)C)C(=O)N[C@@H](CCC(=O)O)C(=O)N[C@H](C(=O)N[C@@H](Cc1ccc(O)cc1)C(=O)N1CCC[C@H]1C(=O)N[C@@H](CCCNC(=N)N)C(=O)N[C@H](C(=O)N[C@@H](CCC(=O)O)C(=O)N[C@H](C(=O)NCC(=O)N[C@@H](CO)C(=O)NCC(=O)N[C@H](C(=O)N[C@@H](Cc1ccc(O)cc1)C(N)=O)[C@@H](C)O)[C@@H](C)O)[C@@H](C)O)[C@@H](C)O)[C@@H](C)O) [[N-terminal(C20 diacid-gGlu), des1, 4G, 15Q, 21E, 23Y, 30S, 31G, 32T, 33Y]mimylin] | 150 | 68
5 | {C20 diacid-γGlu}-ASGLSTAALGRLSQELHELQTYPRTETGSQTY-NH2 (SMILES CC(C)C[C@H](NC(=O)CNC(=O)[C@H](CO)NC(=O)[C@H](C)NC(=O)CC[C@H](NC(=O)CCCCCCCCCCCCCCCCCCC(=O)O)C(=O)O)C(=O)N[C@@H](CO)C(=O)N[C@H](C(=O)N[C@@H](C)C(=O)N[C@@H](C)C(=O)N[C@@H](CC(C)C)C(=O)NCC(=O)N[C@@H](CCCNC(=N)N)C(=O)N[C@@H](CC(C)C)C(=O)N[C@@H](CO)C(=O)N[C@@H](CCC(N)=O)C(=O)N[C@@H](CCC(=O)O)C(=O)N[C@@H](CC(C)C)C(=O)N[C@@H](Cc1c[nH]cn1)C(=O)N[C@@H](CCC(=O)O)C(=O)N[C@@H](CC(C)C)C(=O)N[C@@H](CCC(N)=O)C(=O)N[C@H](C(=O)N[C@@H](Cc1ccc(O)cc1)C(=O)N1CCC[C@H]1C(=O)N[C@@H](CCCNC(=N)N)C(=O)N[C@H](C(=O)N[C@@H](CCC(=O)O)C(=O)N[C@H](C(=O)NCC(=O)N[C@@H](CO)C(=O)N[C@@H](CCC(N)=O)C(=O)N[C@H](C(=O)N[C@@H](Cc1ccc(O)cc1)C(N)=O)[C@@H](C)O)[C@@H](C)O)[C@@H](C)O)[C@@H](C)O)[C@@H](C)O) [[N-terminal(C20 diacid-gGlu), des1, 4G, 15Q, 21Q, 23Y, 30S, 31Q, 32T, 33Y]mimylin] | 158 | 108
6 | {C18 diacid-γGlu}-ASGLSTAALGRLSQELHELQTYPRTETGSGTY-NH2 (SMILES CC(C)C[C@H](NC(=O)CNC(=O)[C@H](CO)NC(=O)[C@H](C)NC(=O)CC[C@H](NC(=O)CCCCCCCCCCCCCCCCC(=O)O)C(=O)O)C(=O)N[C@@H](CO)C(=O)N[C@H](C(=O)N[C@@H](C)C(=O)N[C@@H](C)C(=O)N[C@@H](CC(C)C)C(=O)NCC(=O)N[C@@H](CCCNC(=N)N)C(=O)N[C@@H](CC(C)C)C(=O)N[C@@H](CO)C(=O)N[C@@H](CCC(N)=O)C(=O)N[C@@H](CCC(=O)O)C(=O)N[C@@H](CC(C)C)C(=O)N[C@@H](Cc1c[nH]cn1)C(=O)N[C@@H](CCC(=O)O)C(=O)N[C@@H](CC(C)C)C(=O)N[C@@H](CCC(N)=O)C(=O)N[C@H](C(=O)N[C@@H](Cc1ccc(O)cc1)C(=O)N1CCC[C@H]1C(=O)N[C@@H](CCCNC(=N)N)C(=O)N[C@H](C(=O)N[C@@H](CCC(=O)O)C(=O)N[C@H](C(=O)NCC(=O)N[C@@H](CO)C(=O)NCC(=O)N[C@H](C(=O)N[C@@H](Cc1ccc(O)cc1)C(N)=O)[C@@H](C)O)[C@@H](C)O)[C@@H](C)O)[C@@H](C)O)[C@@H](C)O) [[N-terminal(C18 diacid-gGlu), des1, 4G, 15Q, 21Q, 23Y, 30S, 31G, 32T, 33Y]mimylin] | 70 | 53
7 | {C20 diacid}-ASGLSTAALGRLSQELHELQTYPRTETGSGTY-NH2 (SMILES CC(C)C[C@H](NC(=O)CNC(=O)[C@H](CO)NC(=O)[C@H](C)NC(=O)CCCCCCCCCCCCCCCCCCC(=O)O)C(=O)N[C@@H](CO)C(=O)N[C@H](C(=O)N[C@@H](C)C(=O)N[C@@H](C)C(=O)N[C@@H](CC(C)C)C(=O)NCC(=O)N[C@@H](CCCNC(=N)N)C(=O)N[C@@H](CC(C)C)C(=O)N[C@@H](CO)C(=O)N[C@@H](CCC(N)=O)C(=O)N[C@@H](CCC(=O)O)C(=O)N[C@@H](CC(C)C)C(=O)N[C@@H](Cc1c[nH]cn1)C(=O)N[C@@H](CCC(=O)O)C(=O)N[C@@H](CC(C)C)C(=O)N[C@@H](CCC(N)=O)C(=O)N[C@H](C(=O)N[C@@H](Cc1ccc(O)cc1)C(=O)N1CCC[C@H]1C(=O)N[C@@H](CCCNC(=N)N)C(=O)N[C@H](C(=O)N[C@@H](CCC(=O)O)C(=O)N[C@H](C(=O)NCC(=O)N[C@@H](CO)C(=O)NCC(=O)N[C@H](C(=O)N[C@@H](Cc1ccc(O)cc1)C(N)=O)[C@@H](C)O)[C@@H](C)O)[C@@H](C)O)[C@@H](C)O)[C@@H](C)O) [[N-terminal(C20 diacid), des1, 4G, 15Q, 21Q, 23Y, 30S, 31G, 32T, 33Y]mimylin] | 52 | 49
8 | {C20 diacid-γGlu}-ASGLSTAALGRLSTELHELETYPRTETGSGTY-NH2 (SMILES CC(C)C[C@H](NC(=O)CNC(=O)[C@H](CO)NC(=O)[C@H](C)NC(=O)CC[C@H](NC(=O)CCCCCCCCCCCCCCCCCCC(=O)O)C(=O)O)C(=O)N[C@@H](CO)C(=O)N[C@H](C(=O)N[C@@H](C)C(=O)N[C@@H](C)C(=O)N[C@@H](CC(C)C)C(=O)NCC(=O)N[C@@H](CCCNC(=N)N)C(=O)N[C@@H](CC(C)C)C(=O)N[C@@H](CO)C(=O)N[C@H](C(=O)N[C@@H](CCC(=O)O)C(=O)N[C@@H](CC(C)C)C(=O)N[C@@H](Cc1c[nH]cn1)C(=O)N[C@@H](CCC(=O)O)C(=O)N[C@@H](CC(C)C)C(=O)N[C@@H](CCC(=O)O)C(=O)N[C@H](C(=O)N[C@@H](Cc1ccc(O)cc1)C(=O)N1CCC[C@H]1C(=O)N[C@@H](CCCNC(=N)N)C(=O)N[C@H](C(=O)N[C@@H](CCC(=O)O)C(=O)N[C@H](C(=O)NCC(=O)N[C@@H](CO)C(=O)NCC(=O)N[C@H](C(=O)N[C@@H](Cc1ccc(O)cc1)C(N)=O)[C@@H](C)O)[C@@H](C)O)[C@@H](C)O)[C@@H](C)O)[C@@H](C)O)[C@@H](C)O) [[N-terminal(C20 diacid-gGlu), des1, 4G, 15T, 21E, 23Y, 30S, 31G, 32T, 33Y]mimylin] | 291 | 67
